# Publication PMC10889886
# Molecular target: HCoV-OC43 Spike antigen (HCoV-OC43) (UniProt P36334)
# Test: SEC-MALS
substance,measurement,value
HCoV-OC43 Spike antigen (from UniProt P36334 14-1353) (natural protein),stoichiometry N,3
